Experimental data taken from paper PMC11480477, “STIC2 selectively binds ribosome-nascent chain complexes in the cotranslational sorting of Arabidopsis thylakoid proteins” (The EMBO Journal, 2024).
Substitutions are numbered along the chain they refer to.

T1: Alb4C-His E407G (UniProt Q9FYL3 334-499, E407G)
T1 construct: Alb4, C-terminal region aa 334–499, in pET29b; source: E. coli Rosetta2 (DE3) or BL21 (DE3), purified (HisTrap HP); not shown: His tag, C-terminal, kept
T1 sequence (looked up): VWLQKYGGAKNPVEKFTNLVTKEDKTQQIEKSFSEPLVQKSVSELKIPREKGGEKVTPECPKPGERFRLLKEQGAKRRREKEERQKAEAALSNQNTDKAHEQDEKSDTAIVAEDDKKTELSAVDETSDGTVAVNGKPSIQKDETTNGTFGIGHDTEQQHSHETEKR

T2: Alb4C-His F400G (UniProt Q9FYL3 334-499, F400G)
T2 construct: Alb4, C-terminal region aa 334–499, in pET29b; source: E. coli Rosetta2 (DE3) or BL21 (DE3), purified (HisTrap HP); not shown: His tag, C-terminal, kept
T2 sequence (looked up): T1 sequence (looked up) with F67G, G74E

T3: Alb4C-His R410G (UniProt Q9FYL3 334-499, R410G)
T3 construct: Alb4, C-terminal region aa 334–499, in pET29b; source: E. coli Rosetta2 (DE3) or BL21 (DE3), purified (HisTrap HP); not shown: His tag, C-terminal, kept
T3 sequence (looked up): T1 sequence (looked up) with G74E, R77G

T4: Alb4C-His R399G (UniProt Q9FYL3 334-499, R399G)
T4 construct: Alb4, C-terminal region aa 334–499, in pET29b; source: E. coli Rosetta2 (DE3) or BL21 (DE3), purified (HisTrap HP); not shown: His tag, C-terminal, kept
T4 sequence (looked up): T1 sequence (looked up) with R66G, G74E

T5: Alb4C-His (aa 334–499) (UniProt Q9FYL3 334-499)
T5 construct: Alb4, stromal C-terminal region aa 334–499, in pET29b; also called C-terminal region of Alb4; source: E. coli Rosetta2 (DE3) or BL21 (DE3), purified (HisTrap HP); not shown: His tag, C-terminal, kept
T5 sequence (looked up): T1 sequence (looked up) with G74E

T6: GST-STIC2 E112A K115A (A. thaliana, UniProt O82230 49-182, E112A | K115A)
T6 construct: STIC2 of A. thaliana, mature protein aa 49–182, in pGEX4T3; also called STIC2 E112A K115A double mutant; source: E. coli Rosetta2 (DE3) or BL21 (DE3), purified (glutathione sepharose); not shown: GST, N-terminal, kept
T6 sequence (looked up): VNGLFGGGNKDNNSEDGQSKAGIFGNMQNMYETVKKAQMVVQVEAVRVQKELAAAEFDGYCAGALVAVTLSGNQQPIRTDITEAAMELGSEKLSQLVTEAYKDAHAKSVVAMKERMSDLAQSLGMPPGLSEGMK

T7: GST-STIC2 E131G (A. thaliana, UniProt O82230 49-182, E131G)
T7 construct: STIC2 of A. thaliana, mature protein aa 49–182, in pGEX4T3; The results speak only of E131; source: E. coli Rosetta2 (DE3) or BL21 (DE3), purified (glutathione sepharose); not shown: GST, N-terminal, kept
T7 sequence (looked up): T6 sequence (looked up) with A64E, A67K, E83G

T8: GST-STIC2 E112A (A. thaliana, UniProt O82230 49-182, E112A)
T8 construct: STIC2 of A. thaliana, mature protein aa 49–182, in pGEX4T3; source: E. coli Rosetta2 (DE3) or BL21 (DE3), purified (glutathione sepharose); not shown: GST, N-terminal, kept
T8 sequence (looked up): T6 sequence (looked up) with A67K

B1: Alb4 peptide aa 394–408 (15mer pepspot) (peptide, UniProt Q9FYL3 394-408, looked up)
peptide: PKPGERFRLLKEQEA
notes: largely Motif III; source: synthetic peptide, spot on a membrane (JPT Peptide Technologies)
B2: GST-STIC2 (natural protein, A. thaliana, UniProt O82230 49-182, looked up)
chain: T6 sequence (looked up) with A64E, A67K
notes: STIC2 of A. thaliana, mature protein aa 49–182, in pGEX4T3; also called pGEX4T3-GST-STIC2; source: E. coli Rosetta2 (DE3) or BL21 (DE3), purified (glutathione sepharose); not shown: GST, N-terminal, kept
B3: His-STIC2 (mature STIC2, aa 49–182) (natural protein, A. thaliana, UniProt O82230 49-182, looked up)
chain: T6 sequence (looked up) with A64E, A67K
notes: STIC2 of A. thaliana, mature protein aa 49–182 (transit peptide predicted with TargetP), in pET-Duet1; The N-terminal place of the tag is read from the printed name His-STIC2; also called recombinant mature His-STIC2; suppressor of tic40 protein 2; source: E. coli Rosetta2 (DE3) or BL21 (DE3), purified (HisTrap HP, native conditions); not shown: His tag, N-terminal, kept
B4: GST-STIC2 K115A (natural protein, A. thaliana, UniProt O82230 49-182, looked up)
chain: T6 sequence (looked up) with A64E
notes: STIC2 of A. thaliana, mature protein aa 49–182, in pGEX4T3; source: E. coli Rosetta2 (DE3) or BL21 (DE3), purified (glutathione sepharose); not shown: GST, N-terminal, kept
B5: Alb3 peptide aa 386–400 (15mer pepspot) (peptide, UniProt Q8LBP4 386-400, looked up)
peptide: GERFRQLKEQEKRSK
notes: as for B1
B6: Alb3C-His (aa 350–462) (domain or fragment, UniProt Q8LBP4 350-462, looked up)
chain: VYLRKLGGAKPNMDENASKIISAGRAKRSIAQPDDAGERFRQLKEQEKRSKKNKAVAKDTVELVEESQSESEEGSDDEEEEAREGALASSTTSKPLPEVGQRRSKRSKRKRTV
notes: Alb3, stromal C-terminal region aa 350–462, in pET29b; also called C-terminal region of Alb3; source: E. coli Rosetta2 (DE3) or BL21 (DE3), purified (HisTrap HP); not shown: His tag, C-terminal, kept

What was measured:
Settings in all cases: both partners purified
[1] = biological target: B3; assay: peptide or protein array; pepspot membranes with 15mer peptides of Alb3 (aa 155–208, 282–462) and Alb4 (aa 139–192, 266–499); His-STIC2 5 µg/ml for 3 h at room temperature, TBST washes, detection with anti-His HRP conjugate
Alb4C-His E407G = biological target: T1, Alb4C-His E407G; assay: pull-down; 20 µg GST-STIC2 variants with 20 µg Alb4C-His variants in PBS, 120 µl, room temperature; glutathione sepharose; eluates by immunoblot, coelution quantified with ImageJ
Alb4C-His F400G = biological target: T2, Alb4C-His F400G; assay: as above
Alb4C-His R410G = biological target: T3, Alb4C-His R410G; assay: as above
Alb4C-His R399G = biological target: T4, Alb4C-His R399G; assay: as above
Alb4C-His (aa 334–499) [2] = biological target: T5, Alb4C-His (aa 334–499); assay: ITC; His-STIC2 titrated (1.5 mM into 0.15 mM Alb3C-His or Alb3CΔIII-His; 1 mM into 0.1 mM Alb4C-His or Alb4CΔIII-His); 20 mM HEPES, 150 mM NaCl, pH 8.0, 25 °C; one-site binding model; two to five independent experiments
Alb4C-His (aa 334–499) [3] = biological target: T5, Alb4C-His (aa 334–499); assay: pull-down; 20 µg GST-STIC2 variants with 20 µg Alb4C-His variants in PBS, 120 µl, room temperature; glutathione sepharose; eluates by immunoblot, coelution quantified with ImageJ
GST-STIC2 E112A K115A = biological target: T6, GST-STIC2 E112A K115A; assay: pull-down; 20 µg GST-STIC2 variants with 20 µg Alb3C-His in PBS with 160 mM NaCl, 120 µl, room temperature; glutathione sepharose; eluates by immunoblot, coelution quantified with ImageJ
GST-STIC2 E131G = biological target: T7, GST-STIC2 E131G; assay: as above
GST-STIC2 E112A = biological target: T8, GST-STIC2 E112A; assay: as above
[4] = biological target: B3; assay: ITC; His-STIC2 titrated (1.5 mM into 0.15 mM Alb3C-His or Alb3CΔIII-His; 1 mM into 0.1 mM Alb4C-His or Alb4CΔIII-His); 20 mM HEPES, 150 mM NaCl, pH 8.0, 25 °C; one-site binding model; two to five independent experiments

Binder: B1
- binding result [1]: binds

Binder: B2
- binding result (Alb4C-His E407G): binds
- binding result (Alb4C-His F400G): binds
- binding result (Alb4C-His R410G): binds
- binding result (Alb4C-His R399G): binds

Binder: B3
- Kd (Alb4C-His (aa 334–499) [2]): 17 µM

Binder: B4
- binding result (Alb4C-His (aa 334–499) [3]): binds

Binder: B5
- binding result [1]: binds

Binder: B6
- percent reduction of binding against GST-STIC2 (GST-STIC2 E112A K115A): ~80%
- percent reduction of binding against GST-STIC2 (GST-STIC2 E131G): ~80%
- percent reduction of binding against GST-STIC2 (GST-STIC2 E112A): ~15%
- Kd [4]: 150 µM
